Among the data in patent US20160185857A1 (published 2016) are koff values, retold here.

The assay deals with T1, recombinant soluble human FcγRIIB (UniProt P31994 43-217).
T1 chain: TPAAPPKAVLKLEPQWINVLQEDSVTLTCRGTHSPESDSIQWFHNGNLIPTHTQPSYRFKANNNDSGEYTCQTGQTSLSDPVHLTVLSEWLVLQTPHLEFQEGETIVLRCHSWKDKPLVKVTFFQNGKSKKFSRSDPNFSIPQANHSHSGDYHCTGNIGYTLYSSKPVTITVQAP
The experiment in a line: SPR.

B1: ch8A6_wt (antibody)
chain 1: EVQLVESGGDLVQPGRSLRLSCAASGFTFSDYYMAWVRQAPKKGLEWVASISSDGSNTYYGDSVKGRFTISRDNTRSNLYLQMNSLRSEDTATYYCARPGDYWGQGVMVTVSS
chain 2: NIVMTQSPTSMFISVGDRVTMNCKASQNVGTYVDWFQQKTGQSPTLLIFGASNRYTGVPDRFTGSGSGTDFTLSISNMQAEDLAVYYCLQYNYHPYTFGPGTTLELKR
B1: the koff was 0.00049 s⁻¹.

B2: chGB3_N297A (chimeric GB3, prior art antibody of WO 2005/051999, N297A format) (antibody, V domains shown)
VH: VQLQQSGPELVKPGASVKISCKASGYTFTDYYIYWVKQWPGQGLEWIGWIFPGTGNTYYNENFKDKATLTIDRSSSTAYMLLGSLTSEDSAVYFCYGPFAYWGQ
VL: RIQLTQSPSSLSASLGERVSLTCRASQEISGYLSWLQQKPDGTIKRLIYATSALDSGVPKRFSGSGSGSNYSLTISSLESEDFADYYCLQYANYPYTFGGGTKL
B2: the off-rate (koff) amounted to 0.01 s⁻¹.
